Reference: the RNAGym collection of RNA variant scans (doi:10.7554/elife.80360)

B1: Hairpin Ribozyme (parent)
chain: GUCCUCUUUCACGUGCGCGUGAAAGAGAGAAGUGAACCAGAGAAACACACGUUGUGGUAUAUUACCUGGUA

Variants of: B1
Assay: self-cleavage, relative activity (ratio to wild type); higher = more cleavage; co-transcriptional

Variant	self-cleavage
C38U C46U	0.0928
C38U C48G	0.123
C38U C48U	0.174
C38U C50U	0.249
C38U C65U	0.12
C38U C66G	0.255
C38U G40A	0.203
C38U G51A	0.786
C38U G51U	0.774
C38U G54A	0.269
C38U G57U	0.175
C38U G68A	0.931
C38U G68U	0.605
C38U G69U	0.283
C38U U52A	0.509
C38U U52G	0.261
C38U U55A	0.168
C38U U58G	0.447
C38U U62G	0.124
C38U U67C	0.121
C38U U70A	0.522
A39C	0.539
A39C A41U	0.406
A39C A43G	0.085

Variant	self-cleavage
A39C A44C	0.17
A39C A45G	0.105
A39C A47G	0.172
A39C A49G	0.208
A39C A59C	0.114
A39C A59G	0.126
A39C A59U	0.172
A39C A61G	0.131
A39C A64G	0.0974
A39C A64U	0.16
A39C A71G	0.248
A39C A71U	0.136
A39C C46A	0.191
A39C C46G	0.13
A39C C46U	0.103
A39C C48A	0.171
A39C C50A	0.165
A39C C50G	0.0993
A39C C65A	0.233
A39C G40A	0.112
A39C G40U	0.0957
A39C G51A	0.751
A39C G54U	0.103
A39C G57A	0.215

Variant	self-cleavage
A39C G68A	0.215
A39C G68U	0.229
A39C U52G	0.267
A39C U53G	0.207
A39C U55G	0.205
A39C U58A	0.231
A39C U58G	0.315
A39C U60A	0.359
A39C U60C	0.784
A39C U60G	0.33
A39C U63G	0.122
A39C U67C	0.149
A39C U70C	0.247
A39G	0.299
A39G A43G	0.0922
A39G A44G	0.129
A39G A45U	0.111
A39G A47C	0.166
A39G A49C	0.176
A39G A64C	0.174
A39G A64U	0.123
A39G A71G	0.222
A39G C46A	0.0818
A39G C46G	0.113

Variant	self-cleavage
A39G C46U	0.119
A39G C48U	0.0998
A39G C50G	0.111
A39G C65A	0.442
A39G G51A	0.396
A39G G56C	0.117
A39G G57A	0.129
A39G G57C	0.105
A39G G57U	0.0985
A39G G69A	0.112
A39G G69C	0.101
A39G U52A	0.23
A39G U53C	0.273
A39G U53G	0.207
A39G U60G	0.21
A39G U62A	0.12
A39G U62C	0.145
A39G U63C	0.158
A39G U63G	0.147
A39G U67C	0.544
A39G U67G	0.147
A39G U70A	0.2
A39G U70C	0.372
A39G U70G	0.332

Variant	self-cleavage
A39U	0.424
A39U A41C	0.3
A39U A41U	0.458
A39U A43G	0.103
A39U A43U	0.223
A39U A44G	0.119
A39U A47C	0.168
A39U A59C	0.172
A39U A59G	0.101
A39U A59U	0.184
A39U A64C	0.177
A39U A64U	0.16
A39U A71G	0.221
A39U C46G	0.164
A39U C48A	0.135
A39U C48G	0.124
A39U C48U	0.206
A39U C65A	0.238
A39U C65U	0.201
A39U G40A	0.134
A39U G40C	0.149
A39U G40U	0.149
A39U G42A	0.18
A39U G42C	0.158

Variant	self-cleavage
A39U G51A	0.585
A39U G51C	0.35
A39U G54A	0.122
A39U G68A	0.199
A39U G68C	0.0955
A39U U53G	0.179
A39U U55C	0.183
A39U U55G	0.108
A39U U58A	0.328
A39U U58C	0.46
A39U U58G	0.227
A39U U60G	0.256
A39U U62C	0.133
A39U U63A	0.114
A39U U63G	0.137
A39U U70A	0.289
G40A A45G	0.147
G40A A47C	0.194
G40A A47U	0.154
G40A A49C	0.0897
G40A A59G	0.0897
G40A A61C	0.14
G40A A71G	0.402
G40A C46G	0.136

Variant	self-cleavage
G40A C46U	0.147
G40A C50U	0.195
G40A G42C	0.0893
G40A G51A	0.578
G40A G54A	0.19
G40A G54C	0.0891
G40A G56A	0.117
G40A G57C	0.0825
G40A G57U	0.0976
G40A G69A	0.122
G40A U53A	0.424
G40A U55C	0.144
G40A U55G	0.121
G40A U58C	0.558
G40A U60C	0.413
G40A U63A	0.161
G40A U63C	0.15
G40A U67G	0.147
G40C A41G	0.163
G40C A44G	0.101
G40C A44U	0.151
G40C A45G	0.0193
G40C A45U	0.267
